Reference: patent publication US20250011448A1 (STAIDSON BIOPHARMA, published 2025)

T1: human TNFR2 extracellular domain with C-terminal 10×His tag (human, UniProt P20333 23-257)
T1 construct: also called huTNFR2-His; His-tag-huTNFR2
T1 sequence: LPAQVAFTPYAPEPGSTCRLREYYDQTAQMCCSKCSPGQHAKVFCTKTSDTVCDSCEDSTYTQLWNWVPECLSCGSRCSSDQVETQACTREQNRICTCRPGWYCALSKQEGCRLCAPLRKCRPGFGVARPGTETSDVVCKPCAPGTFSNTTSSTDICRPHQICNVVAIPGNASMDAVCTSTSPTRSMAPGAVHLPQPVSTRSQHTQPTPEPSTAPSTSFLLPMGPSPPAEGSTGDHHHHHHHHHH

T2: human TNFR2 expressed on cells (Expi293 cells stably expressing huTNFR2) (human, UniProt P20333 23-461)
T2 construct: whole, on cells; Also used here as the target of the Treg assay (native TNFR2 on human primary Treg cells); also called huTNFR2 expressed cells; Expi293-TNFR2 cells
T2 sequence (looked up): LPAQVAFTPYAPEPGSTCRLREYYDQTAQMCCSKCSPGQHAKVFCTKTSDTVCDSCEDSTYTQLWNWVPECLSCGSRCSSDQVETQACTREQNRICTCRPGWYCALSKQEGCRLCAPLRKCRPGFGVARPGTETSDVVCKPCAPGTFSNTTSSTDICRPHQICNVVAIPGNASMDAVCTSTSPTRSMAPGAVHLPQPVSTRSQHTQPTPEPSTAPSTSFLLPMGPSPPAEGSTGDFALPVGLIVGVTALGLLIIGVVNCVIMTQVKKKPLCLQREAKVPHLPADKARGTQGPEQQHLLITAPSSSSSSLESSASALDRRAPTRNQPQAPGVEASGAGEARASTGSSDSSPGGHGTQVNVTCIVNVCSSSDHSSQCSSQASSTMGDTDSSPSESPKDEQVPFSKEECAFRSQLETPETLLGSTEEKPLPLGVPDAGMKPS

T3: cynomolgus monkey TNFR2 extracellular domain with C-terminal 10×His tag (cynomolgus monkey, UniProt P20333 23-257 (human entry))
T3 construct: also called cynoTNFR2-His; His-tag-cynoTNFR2
T3 chain: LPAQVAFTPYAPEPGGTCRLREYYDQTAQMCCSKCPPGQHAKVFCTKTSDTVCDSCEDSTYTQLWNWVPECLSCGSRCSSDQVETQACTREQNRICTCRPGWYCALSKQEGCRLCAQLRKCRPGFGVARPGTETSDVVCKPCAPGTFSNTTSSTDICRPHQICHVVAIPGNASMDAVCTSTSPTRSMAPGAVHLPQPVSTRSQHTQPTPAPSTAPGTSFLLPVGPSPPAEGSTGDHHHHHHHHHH

T4: human TNFR2 extracellular domain fused to human IgG1 Fc (human, UniProt P20333 23-257)
T4 construct: also called TNFR2-huFc; huTNFR2; not shown: C-terminal human IgG1 Fc
T4 sequence: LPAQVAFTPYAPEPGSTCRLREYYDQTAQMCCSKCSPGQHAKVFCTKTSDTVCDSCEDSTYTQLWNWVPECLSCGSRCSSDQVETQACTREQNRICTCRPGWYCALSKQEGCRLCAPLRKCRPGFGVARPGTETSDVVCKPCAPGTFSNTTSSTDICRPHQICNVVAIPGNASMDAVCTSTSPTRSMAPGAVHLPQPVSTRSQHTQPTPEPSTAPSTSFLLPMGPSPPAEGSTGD


Legend:
[1] = target: T1, human TNFR2 extracellular domain with …; test: BLI (Octet RED96), antibody captured on AHC biosensor, His-tag-huTNFR2 in solution, 1:1 model
Experimental: (§1) The following kinetic assay was performed using anti-human IgG Fc capture (AHC) biosensors (ForteBio) in kinetics buffer (PBS, 0.1% Tween-20 and 1% bovine serum albumin): (a) antibody (2 μg/mL) for 300 sec, (b) baseline for 120 sec, (c) association with His-tag-huTNFR2 (2.5, 0.5 and 0 μg/mL) for 420 sec and (d) dissociation for 1200 sec. Data fitting and analysis was performed with Octet data analysis software 8.0 (ForteBio) using a 1:1 binding model after Savitzky-Golay filtering. The dissociation constant (Kd) was calculated as the ratio of Koff/Kon.

[2] = target: T1, human TNFR2 extracellular domain with …; test: BLI (Octet RED96), AHC capture, His-tag-huTNFR2 in solution; antibody sample after 2 weeks at 40 °C
Experimental: as §1, with “antibody sample” for “antibody”, “see,” for “sec,”, “filtering.” for “filtering. The dissociation constant (Kd) was calculated as the ratio of Koff/Kon.”

[3] = target: T2, human TNFR2 expressed on cells (Expi293 …); test: flow cytometry on Expi293 cells stably expressing huTNFR2, y axis TNFR2 binding (MFI)
Experimental: (§2) The coding sequence of huTNFR2 (Uniprot, P20333) was cloned into a lentiviral vector and the virus was packaged according to the instruction of the virus packaging kit (Lenti-X™ Packaging Single Shots, Cat #631275, Takada). The Expi293 cells were transduced with the recombinant virus and selected by puromycin. The cell line stably expressing huTNFR2 was incubated with anti-TNFR2 antibodies in PBS with 0.5% BSA, 1 mM EDTA, and 0.1% sodium azide (FACS buffer) for 30 minutes at 4° C. The cells were washed, and then incubated with 10 nM phycoerythrin (PE) conjugated anti-Human Fe Ab (Biolegend, cat #409304) for 20 minutes at 4° C. Cells were washed and then […] by flow cytometry with Attune (ThermoFisher Scientific). Data were analyzed with FlowJo software. Antibody binding is represented as median fluorescence intensity (MFI).
FACS based binding and blocking assays of humanized antibodies were performed as described above.

[4] = target: T1, human TNFR2 extracellular domain with …; test: BLI (Octet RED96), AHC capture, His-tag-huTNFR2 in solution; antibody sample at week 0 of storage at 40 °C
Experimental: as §1, with “antibody sample” for “antibody”, “see,” for “sec,”, “filtering.” for “filtering. The dissociation constant (Kd) was calculated as the ratio of Koff/Kon.”
(§3) The binding kinetic data were presented in Table 18, showing that the binding with human-TNFR2 was not affected under the accelerated thermal stressed condition (4 weeks at […]

[5] = target: T1, human TNFR2 extracellular domain with …; test: BLI (Octet RED96), AHC capture, His-tag-huTNFR2 in solution; antibody sample after 4 weeks at 40 °C
Experimental: as §1, with “antibody sample” for “antibody”, “see,” for “sec,”, “filtering.” for “filtering. The dissociation constant (Kd) was calculated as the ratio of Koff/Kon.”
as §3

[6] = target: T3, cynomolgus monkey TNFR2 extracellular …; test: ELISA, plate coated with His-tagged TNFR2 ECD, serial dilution of chimeric IgG; ELISA; cynoTNFR2-His coated on plate at 1 µg/mL, bivalent IgG in solution
Experimental: (§4) TNFR2 binding of purified recombinant chimeric antibodies: The huTNFR2, cynoTNFR2 antigen binding ELISA was performed on the purified recombinant chimeric antibodies. Briefly, 384-well, clear, flat bottom, high binding plates (VWR, cat #29444-096) were coated overnight at 4° C. with 1 μg/mL of huTNFR2 or cynomolgus monkey TNFR2-His in PBS. After removing the coating solution, the plates were blocked by adding blocking buffer and incubated at room temperature for 1 hour. Plates were then washed 3 times with wash buffer. Serial dilution of purified antibodies in PBS was added to individual well followed by incubation at room temperature for 1 hour. Plates were washed 3 times with wash buffer. Then 50 μL/well of goat anti hu Kappa —AP (Southern Biotech, cat #2061-04) at 1:3000 dilution or goat anti human IgG Fc-AP at 1:3000 dilution in ELISA diluent was added, incubated at room temperature for 1 hour, washed 5 times with wash buffer and developed for 30 minutes with 50 μL/well of pNPP substrate. Plates were analyzed with a Bio-TEK at 405 nm. The chimeric TNFR2 antibodies were tested positive for binding to huTNFR2 and cynoTNFR2. The TNFR2 binding EC50 values are shown in Table 6, FIG. 1A (for huTNFR2) and FIG. 1B (for cynoTNFR2).

[7] = target: T1, human TNFR2 extracellular domain with …; test: BLI (Octet RED96), antibody captured on AHC biosensor, His-tagged TNFR2 in solution, 1:1 model
Experimental: as §1, with “0 μg/mL) and His-tag-cynoTNFR2 (2.5, 0.5 and 0 μg/mL) for 420” for “0 μg/mL) for 420”, “Savitzky-Golay filtering.” for “Savitzky-Golay filtering. The dissociation constant (Kd) was calculated as the ratio of Koff/Kon.”

[8] = target: T1, human TNFR2 extracellular domain with …; test: ELISA, plate coated with His-tagged TNFR2 ECD, serial dilution of chimeric IgG
Experimental: as §4

[9] = target: T4, human TNFR2 extracellular domain fused …; test: blocking ELISA: antibody pre-mixed with huTNFR2, binding of huTNFR2 to coated human TNFα read out
Experimental: 96-well round bottom ELISA plates were coated overnight at 4° C. with 50 μL/well of 0.5 μg/mL human TNFα recombinant protein (R&D system, Cat #210-TA-100) in coating buffer. After removing the coating solution, blocking buffer was added into the plates followed by incubation at room temperature for 1 hour in order to block unspecific binding. During the blocking period, hybridoma antibodies samples were mixed with 0.5 μg/mL TNFR2-huFc at a 1:1 volume ratio and incubated at room temperature for another 1.5 hours. Then 50 μL/well of antigen-antibody mix solution was transferred into TNFα coated wells and incubated at room temperature for 1.5 hours. Plates were then washed 5 times with wash buffer. Then, 50 μL/well of goats anti-human IgG Fc-AP (Southern Biotech, cat #2014-04) at 1:2000 dilution in assay buffer was added, incubated at room temperature for 1 hour, washed 4 times with wash buffer and developed for 30 minutes with 50 μL/well of pNPP substrate. Plates were analyzed with a Synergy HT (Bio-TEK) at 405 nm. Parental hybridomas with the desired human and cynoTNFR2 binding as well as the ability to block human TNFR2 and human TNFα binding were prioritized for subcloning and further characterization. Subcloning was carried out with limited dilution and visual inspection was performed to ensure clonality. Hybridoma subclones were screened with the same binding and blocking assays and selected positive hits were cryopreserved.
TNFR2 blocking by purified recombinant chimeric antibodies: Human TNFR2 blocking ELISA was performed on purified recombinant chimeric antibodies following the same protocol as described above, except that 50 μL/well of serial dilution of purified antibodies (starting at 10 μg/mL, 1:3 dilution) in assay buffer was added into the reaction. The blocking IC₅₀ value represents the antibody concentration that inhibited 50% of huTNFR2 or cynoTNFR2 binding to coated human TNFα or cynomolgus monkey TNFα.

[10] = target: T2, human TNFR2 expressed on cells (Expi293 …); test: flow cytometry on Expi293 cells stably expressing huTNFR2
Experimental: as §2
As shown by the results in Table 9 and FIG. 4A, the anti-TNFR2 antibodies, 51B5, 102E4, 85G8.4, 29G3, 11C1, and 15H10 bind to Expi293-TNFR2 cells dose-dependently and potently.

Kd [1] [nM]	koff [1] [s⁻¹]	kon [1] [M⁻¹ s⁻¹]	Kd [2] [nM]	koff [2] [s⁻¹]	kon [2] [M⁻¹ s⁻¹]	EC50 (read off the curve) [3] [nM]	Kd [4] [nM]	koff [4] [s⁻¹]	kon [4] [M⁻¹ s⁻¹]	Kd [5] [nM]	koff [5] [s⁻¹]	kon [5] [M⁻¹ s⁻¹]	EC50 [6] [nM]	Kd [7] [nM]	koff [7] [s⁻¹]	kon [7] [M⁻¹ s⁻¹]	EC50 [8] [nM]	IC50 [9] [nM]	EC50 [10] [nM]	Binder
1.11	0.000456	412000	1.35	0.000471	348000	~0.6	1.68	0.000495	295000	1.06	0.000527	497000	–	–	–	–	–	–	–	SB1901-72 humanized anti-TNFR2 antibody (antibody, V domains shown) VH: QVQLVQSGAEVKKPGASVKVSCKASGYTFTDDYIDWVRQATGQGLEWIGEIYPGSGNTYYNEKFKGRVTMTRDKSISTAYMELSSLRSEDTAVYYCARSQVYGKIAMDHWGQGTLVTVSS VL: DIVMTQSPDSLAVSLGERATINCRASESVDNSGNSFMHWYQQKPGQPPKLLIYRASNLESGVPDRFSGSGSRTDFTLTISSLQAEDVAVYYCQQSKEDPYTFGQGTKVEIK
–	–	–	–	–	–	–	–	–	–	–	–	–	0.338	1.59	0.000696	439000	0.04	1.13	0.819	102E4 chimeric anti-TNFR2 antibody (antibody, V domains shown, Chimeric: mouse variable domains with human constant regions, made as recombinant IgG1) VH: EVLLQQSGAELVRPGASVKLSCTASGFNIKDDFIHWVQQRPEQGLEWIGRINPSNANTEYAPKFQDKATITTDTSSNTAYLQLSSLTSEDTAVYYCTRNDGYYDGLFYWGQGTTLTVSS VL: DIVMTQSHKFMSSSVGDRVSITCKASQDVGTAVAWYQQKPGQSPKLLIYWASTRHTGVPDRFTGSGSGTDFTLTISNVQSEDLADYFCQQYSSYPFTFGSGTKLEIK
